Laboratory results published in patent US12098378B2, “Anti-fungal polypeptides” (priority 2020, dated 2024).

Assays:
Botrytis cinerea [1] = assay: Control of Botrytis cinerea on strawberry, at harvest and postharvest; type: in vivo
Description: Four replicates of 20 strawberry plants ([…] per plot) were treated with 0.576 or 0.72 l of spray solution, corresponding with a spray volume of […], according to local practice. The spray mix contained a concentration of active ingredient as described in Table 7. Six applications were performed spaced 7 days apart. No artificial infection was performed and first spray was placed at the onset of flowering. The efficacy of 10G11 was compared to that of a non-treated control and the chemical reference Teldor (Fenhexamid). In addition, a chemical rotation of Switch (Cyprodinil+Fludioxonil), Teldor (Fenhexamid) and Scala (Pyrimethanil) was evaluated. A seventh treatment replaced part of the chemicals in this chemical rotation by 10G11 as described in Table 7.
Efficacy assessments were performed on fruits at harvest and the number and weight of healthy and diseased fruits was evaluated. Per plot, 50 healthy fruits were then placed into cold storage (2° C.) for two days, after which the postharvest assessment continued for 5 more days at ambient temperature ([…]). Botrytis incidence and severity on stored fruits was assessed at 0, 2 and 5 days at ambient storage.

Podosphaera xanthii = assay: Control of powdery mildew on cucumber in greenhouse; type: in vivo
Description: Four replicates of 10 plants per plot of cucumber plants (4 m^2 per plot) were treated with a spray volume between 1000 and 18751/ha depending on the crop height. The spray mix contained a concentration of active ingredient as described in Table 8. Eight applications were performed spaced 7 days apart. No artificial infection was performed and first spray was placed at the onset of flowering. The efficacy of 10G11 was compared to that of a non-treated control, a chemical reference Topaz (Penconazole), a biological reference Sonata (Bacillus pumilis strain QST 2808) in combination with the adjuvant Elasto G5 and a chemical rotation of Takumi (Cyflufenamid), Flint (Trifloxystrobin) and Topaz.
Efficacy assessments were performed on 40 leaves per plot, assessing the percentage of leaf area affected (PESSEV). Assessments were performed on a weekly basis and continued until two weeks after the last application.

Botrytis cinerea [2] = assay: Control of Botrytis cinerea on grapevine in field; type: in vivo; conditions: 250, 500, 750 g ai/ha, 4 applications; until 20 days after the last application (FIG. 19)
Description: Four replicates of 10 vines (33.6 m^2 per plot) were treated with 8 l of spray solution, corresponding with a spray volume of […], according to local practice. The spray mix contained a concentration of active ingredient as described in Table 3. Four applications were done at specific phenological development stages of the vines: BBCH 77, BBCH 79, BBCH 81 and BBCH 85 (according to the standardised BBCH-scale). No artificial infection was performed, and first spray was placed preventative, based on forecasted disease pressure. The efficacy of 10G11 was compared to that of a non-treated control and the chemical reference Teldor (Fenhexamid). In addition, a chemical rotation of Switch (Fludioxonil+cyprodinil) and Teldor and a rotation of Switch and 10G11 was tested.
Disease severity is recorded as percent severity on a scale of 0-100% (PESSEV). Recording started when first symptoms appeared, just prior to the fourth application. Additional assessments were performed 13 and 20 days after the last application. At each assessment, the percentage of grape bunch surface affected by the disease was estimated on 100 randomly selected bunches per plot.

Fraction 3 = assay: ELISA with biotinylated liposomes on streptavidin-coated plates; type: binding, Botrytis cinerea
Source text: Dissociation constants (Kd) can be estimated based on the results of an ELISA. In equilibrium analysis as in ELISA, the Kd can be calculated from the equilibrium binding response. Where the ELISA plate wells are coated with a target antigen, and where the target antigen may be a lipid-containing fraction of the membrane of Botrytis cinerea, such a method may further use a range of concentrations of a polypeptide binding the target antigen. Where the ELISA generally provides a quantitative adsorption measure for each polypeptide concentration representing binding of the polypeptide to the target antigen, the range of concentration of a polypeptide may for example be 0.5, 1, 2.5, 5, and 10 μM. The most suitable range of concentrations used can vary depending on the affinity of the polypeptide to the target antigen. The corresponding absorption values as determined by ELISA may result in a sigmoid curve when absorption values are plotted against the logarithmic conversion of the polypeptide concentrations. This sigmoid curve may serve to define an IC50 value. Where this IC50 is the concentration of polypeptide where the corresponding absorption value is 50% of the saturated value as estimated by the maximum of the sigmoidal function, the Kd can be estimated by 1/Ka were the association constant (Ka) can be estimated as 1/IC50. Thus Kd corresponds to the analyte concentration that reaches equilibrium at 50% binding saturation. Commonly computation methods can be used for these calculations. For example, this can be done using GraphPad. In some embodiments, the Kd may be determined by surface plasmon resonance (SPR).
The above-mentioned method for the formation of liposomes (Example 12) was modified with the addition of a biotinylated lipid (12:0 Biotinyl M G (1-(12-N-biotin)aminododecanoyl-rac-glycerol), Sigma Aldrich), to allow for use of these liposomes for ELISA using streptavidin-coated plates (Pierce™ Streptavidin Coated High Capacity Plates, Clear, 96-Well, blocked with SuperBlock™ Buffer, Thermo Fisher Scientific).
To estimate the dissociation constant Kd value of 10G11 binding to Fraction 3, the ELISA set-up with biotinylated liposomes from Fraction 3 as described in Example 13 was used. 10G11 polypeptide was added in the following concentrations: 0.5, 1, 2.5, 5, and 10 μM, prepared by a serial dilution in phosphate buffer. […] This plot was used to estimate the Kd dissociation constant using GraphPad. Where non-linear regression fitting was used.

Botrytis cinerea R16 = assay: Prolonged incubation antifungal assay followed over 14 days; type: cell-based; conditions: followed over a period of 14 days (FIG. 9)
Description: Two-fold dilutions of purified VHH 10G11Q were prepared in 96-well microtiter plates. To 20 μl of these dilutions and to 20 μl of water as a control, 80 μl of fungal spore suspension (1 E+05 spores/ml in half strength potato dextrose broth (PDB)) were added, starting with a final VHH 10G11Q concentration of 10 μM. […] All tests were performed in at least 2 replicates.

B1: 10G11: VHH polypeptide, SEQ ID NO: 2, begins with a D residue (protein)
VHH: DVQLVESGGGLVQAGGSLRLSCAASRSIFSINAMDWYRQAPGKQREWVAGITRGGTTKYADSVKGRFTISRDNAKKKVYLQMNSLKPEDTAVYYCNVLRGEQPWTRDYWGQGTQVTVSS
- Botrytis infected strawberry fruits at harvest (Botrytis cinerea [1]; 250, 500, 750 g ai/ha, 6 applications in the field during flowering (FIG. 26)): reduced incidence of Botrytis at harvest
- Botrytis severity on strawberry fruits in postharvest (Botrytis cinerea [1]; stored fruits, 2 days at 2° C. then 0, 2 and 5 days at ambient storage (FIG. 27)): dose-related reduction of Botrytis severity on stored fruits
- severity (PESSEV) of powdery mildew on cucumber (Podosphaera xanthii; 125, 250, 500 g ai/ha LWA, until 1 week after the seventh application (FIG. 28)): clear and dose-related performance
- severity (PESSEV) of powdery mildew on cucumber (Podosphaera xanthii; from the eighth application, very severe disease pressure (FIG. 28)): Performance decreased
- percent severity (PESSEV) of Botrytis cinerea on grape bunches (Botrytis cinerea [2]): clear and dose-related performance
- IC50 (Fraction 3; 0.5, 1, 2.5, 5 and 10 μM polypeptide, non-linear regression fitting in GraphPad (FIG. 29), read-out: IC50 of ELISA absorption plot): 760 to 1550 nM
- Kd (Fraction 3; converted from the ELISA IC50 range (FIG. 29), read-out: dissociation constant Kd, estimate): 760 to 1550 nM
- effect on preventing spore outgrowth (Botrytis cinerea R16): allowed spore outgrowth to partly reinitiate after 3 days
